Like-named read-outs stand apart in the source and are kept apart here.
What was measured:
[1] = target: T1, 人TIGIT重组蛋白 (hTIGIT; TIGIT-hFc 或 TIGIT-his) (human) (UniProt Q495A1); experiment: ELISA on coated hTIGIT
T1 sequence (looked up): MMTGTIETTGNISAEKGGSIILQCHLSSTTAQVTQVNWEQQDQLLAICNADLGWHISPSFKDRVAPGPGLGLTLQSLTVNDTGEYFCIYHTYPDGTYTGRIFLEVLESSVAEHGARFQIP

人TIGIT-hFc (human) [2] = target: 人TIGIT-hFc (human) (UniProt Q495A1); experiment: blocking ELISA: Bio-CD155 on coated TIGIT-hFc
[3] = target: 恒河猴TIGIT-mFc (rhesus monkey; mouse); experiment: ELISA on coated RhTIGIT-mFc
恒河猴TIGIT-mFc (rhesus monkey; mouse), sequence (P01863 other isoform, or with tags, fused parts or gaps): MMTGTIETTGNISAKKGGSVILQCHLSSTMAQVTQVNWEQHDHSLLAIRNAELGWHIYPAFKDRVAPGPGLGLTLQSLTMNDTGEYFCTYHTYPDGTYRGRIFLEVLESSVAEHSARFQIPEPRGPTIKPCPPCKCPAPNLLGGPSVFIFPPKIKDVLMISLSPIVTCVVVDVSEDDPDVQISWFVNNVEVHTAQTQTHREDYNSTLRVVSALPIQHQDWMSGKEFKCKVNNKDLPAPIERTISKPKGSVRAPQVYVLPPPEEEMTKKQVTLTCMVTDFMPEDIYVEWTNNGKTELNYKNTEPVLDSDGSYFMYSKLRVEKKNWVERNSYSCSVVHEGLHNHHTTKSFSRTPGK

[4] = target: T2, CHO-K1-T1001细胞表达的人TIGIT (human) (UniProt Q495A1); experiment: cell ELISA on fixed hTIGIT+ CHO-K1 cells
T2 sequence (looked up): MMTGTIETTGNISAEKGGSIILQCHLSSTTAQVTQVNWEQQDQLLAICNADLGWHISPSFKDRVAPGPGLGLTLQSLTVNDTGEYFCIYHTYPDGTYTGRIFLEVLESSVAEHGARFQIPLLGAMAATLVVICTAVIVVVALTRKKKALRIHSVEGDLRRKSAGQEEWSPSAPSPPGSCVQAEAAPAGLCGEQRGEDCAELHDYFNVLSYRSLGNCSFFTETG

[5] = target: T1, 人TIGIT重组蛋白 (hTIGIT; TIGIT-hFc 或 TIGIT-his) (human); experiment: ELISA on coated hTIGIT; remark: listed apart in the source
[6] = target: T2, CHO-K1-T1001细胞表达的人TIGIT (human); experiment: cell ELISA on fixed hTIGIT+ CHO-K1 cells; remark: listed apart in the source
人TIGIT-hFc (human) [7] = target: 人TIGIT-hFc (human) (UniProt Q495A1); experiment: blocking ELISA: Bio-CD155 on coated TIGIT-hFc; remark: listed apart in the source

EC50 [1]: 1.13 nM
IC50 (人TIGIT-hFc (human) [2]): 1.19 nM
EC50 [3]: 0.243 nM
EC50 [4]: 0.138 nM
EC50 [5]: 0.462 nM
EC50 [6]: 0.0268 nM
IC50 (人TIGIT-hFc (human) [7]): 3.3 nM
Substance: 阳性对照抗体Ref1 (罗氏RG6058) (antibody)
